Measurements: the supplement of paper PMC12764529
± gives the half width of the 95% confidence interval.

What was measured:
[1] = folding stability dG unfold from trypsin proteolysis; higher = more stable
Outline: (§1)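 How resistant each design was to proteolysis was captured as K50, inferred by Bayesian fitting of sequencing counts. Unfolding free energy was then derived relative to a sequence-predicted unfolded-state K50 and a shared folded-state K50, per protease or combined. Digestion used trypsin and chymotrypsin at 11 threefold-diluted concentrations plus a no-protease condition, on mini-proteins under 80 residues without cysteine in a PA-tagged cDNA display construct. Designs were kept only when AlphaFold2 dimer inter-PAE was above 15.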

[2] = folding stability dG unfold from chymotrypsin proteolysis; higher = more stable
Outline: as §1

[3] = folding stability dG unfold (combined trypsin and chymotrypsin); higher = more stable
Outline: as §1

Sequence	folding stability dG unfold [1] [kcal/mol]	folding stability dG unfold [2] [kcal/mol]	folding stability dG unfold [3] [kcal/mol]
SMKEVEKREFPDGTTVTFSKSSSPVITIKVTTYSPVPNTSELSSSESTYTFPLPPGKPLTLEEVLKKVLESA [r9_614_JUSTAS]	0.54 ± 0.035	1.38 ± 0.21	1.02 ± 0.13
SAGGSAGGSAGGSKKYFFKIKKIKVETKLEVNEDGSLTEEKKIEIEIELRELPSLEDLLSAGGSAGGSAGGS [r4_450_TrROS_Hall]	3.56 ± 0.25	4.62 ± 0.17	4.16 ± 0.2
SAGGSAGGSAGGKATLGEDGFLVIEREVELPDGPYRPETLVIPLPELTPEEVERLLETESAGGSAGGSAGGS [r10_1096_TrMRF]	1.24 ± 0.13	0.919 ± 0.044	1.05 ± 0.096
SPYFMFPIDDIKVEKERDPDDGKKTYEMRVEGPNGNPFRIEFNPKDGMIHIEFPPGMKLRPGDTFELTIRSA [r9_509_TrROS]	2.09 ± 0.088	1.59 ± 0.2	1.85 ± 0.21
GLVDEDGKEVFPEVPLVIELDVPENLPDGKKLSPEEVEKLVKGLAEKLKKEYNVKKVEAERKGNKVLILVGS [r1_369_TrMRF]	0.688 ± 0.058	0.519 ± 0.15	0.706 ± 0.1
SAGGSAGGMPVSVEIELTVPTSPDETPEEALERIREELAPLGVEEVTATPLPDGTVRFRITVPRSAGGSAGG [r6_882_JUSTAS]	1.44 ± 0.048	0.504 ± 0.2	0.961 ± 0.13
SAGKIKPGQKIKIKITSIEKLKDGTIKIKAEIELEEKGYKITIEAEIKYDKKTKKLTIKVKIKIEPKPSAGG [r19_342_TrROS_Hall]	3.26 ± 0.14	4.14 ± 0.18	3.88 ± 0.24
SAGGSITVSEDESNLTFTIPVPPTEPLTPEEVRAAAEALLAELGPDIRVLSIERLPDGGYRVEAEVRSAGGS [r8_103_JUSTAS]	2.08 ± 0.033	1.6 ± 0.043	1.87 ± 0.037
SAGGSAGGSLDPGEEVKIEITDWHPPNGYYRIKIEFPNGPPIDIWMPPDDPQQMKEQAKDLIKSAGGSAGGS [r20_167_TrROS]	-0.725 ± 0.46	0.372 ± 0.36	0.107 ± 0.23
SLEVAAELGLSVSSLEELETDPEKGTRLLRLTAPTPGATVEVLVEVTTRKDSKGETVPEVRVLAVRTVAPSA [r9_613_JUSTAS]	1.15 ± 0.03	1.33 ± 0.077	1.26 ± 0.07
SAGGSAGGSAGGWIRNKDGKPVKLEIYPFPVEMWMYRKKPDGGWEPHPMRMPFTFIRITPSAGGSAGGSAGG [r7_90_TrROS]	1.59 ± 0.049	1.55 ± 0.11	1.65 ± 0.11
SAGGSAGGGEPFVIRVELEWPNNNSIPFNIPFPPGDAITAAKNIASPLRKMGRPIKIKITDIYPSAGGSAGG [r6_721_TrROS]	0.545 ± 0.13	0.0836 ± 0.41	0.419 ± 0.16
SAGGSAGGDEIADKVKDLLRKHGWPVKEVEVTVMPHPPGRVYVMIEITMEHPGKKWTMEIMVEVSAGGSAGG [r6_533_TrROS]	3.15 ± 0.14	4.79 ± 0.054	4.66 ± 0.13
SAGGKKKKKVKIKIEIAIVIPEEDLSEEERKKLAEELAERLKRELAEKLGLSEDEIEEIEVTVYRLPPSAGG [r13_5_TrROS_Hall]	1.67 ± 0.092	2.33 ± 0.067	2.04 ± 0.21
SAPAVLLEEPDTLVEVEKLPDGSLLIRRVTKFPDGSVTVEISVIYPGGSLSVLESVTLNVPPEEPLPLLSAG [r14_42_JUSTAS]	2.42 ± 0.054	1.46 ± 0.051	1.91 ± 0.073
ETIYLSSSNPEEVIKALKEAASKGKTVVVEANPEFFKEFIAQGFKVEKILKIEPIPGGDGYRAEIKISPGGS [r1_173_TrMRF]	1.64 ± 0.082	1.95 ± 0.063	1.97 ± 0.14
SAGGSAGGSAGGSMLVELDENGKTLTIYDEETQELIEVEVEPAPPVEETVTEVSEEELKSAGGSAGGSAGGS [r4_56_TrROS_Hall]	0.666 ± 0.098	0.000558 ± 0.08	0.375 ± 0.26
SAKKKVIEVELPPDAKVVTIKLEGKGVEITFVEVDGKLVITVRYKDDPSKTVTIVVKTKEEADALLKALSAG [r14_716_TrROS_Hall]	1.23 ± 0.082	1.85 ± 0.068	1.66 ± 0.27
SAGGKTIEIEVKVPPGMTEEEVAKKLAEELAKELEKKTGKEIKIEIEKVEKLPNGERKVRIKIEVKPSAGGS [r8_156_TrROS_Hall]	1.42 ± 0.035	1.8 ± 0.18	1.74 ± 0.2
SAMVVIKPEGDKIVVEITLPDGSTKVIELPEVEKIEIKGDTLIITDPKTGKKIIPENTTVSNPKIEPAKSAG [r14_83_JUSTAS]	-0.167 ± 0.065	-0.0623 ± 0.064	0.0698 ± 0.14
SAGMTITVESLEDALALAEELAEKYPGLKVTVEVRLSPDGKTVEVRVTIEPAPPVKVVDPETGEEVEEESAG [r5_870_TrROS_Hall]	3.72 ± 0.36	2.3 ± 0.12	3.43 ± 0.3

Sequence	folding stability dG unfold [1] [kcal/mol]	folding stability dG unfold [2] [kcal/mol]	folding stability dG unfold [3] [kcal/mol]
SAGGAFEMSNEYWFPDGFRVKLKVEVYPNGMFMLDLEIEPIPPPPPIKIEKDPDGEYKYDPNGQPQKDSAGG [r13_151_TrROS]	2.58 ± 0.18	3.36 ± 0.18	2.91 ± 0.38
SIKFPDGSEIEFEWSEDKEYEVELPNGPIVKIKKVIKEGESWIVEVEFEDGSKVILEVDPNNPEEVQKAIAS [r1_66_TrMRF]	1.77 ± 0.086	2.19 ± 0.072	2.06 ± 0.1
SAGMVVENPGTETRVVFDPETGELYVEVGDKVYRIPLPPGVEVEFEVDPEAGTIRVYFPNTGEVLELPLSAG [r5_858_TrMRF]	4.19 ± 0.13	3.38 ± 0.042	3.63 ± 0.051
ATVTITDVSFDPETNTITVTVTVTGPDGTTTTFTATFRIEPAPPPAPPAPVYVVDDDGKVYNLDTGEWKDVS [r1_270_TrROS_Hall]	2.12 ± 0.048	2.3 ± 0.037	2.21 ± 0.054
SAGGSPEEIANEVKEKILKELPPGVKVEVSVEVTPEGATVTVKVPEGKEYTVKVEGDKIVEIKLLKKSAGGS [r8_287_JUSTAS]	0.921 ± 0.081	1.92 ± 0.057	1.51 ± 0.28
SAGGSLTAEWDTSTGTVRLTFPDGSVVELPFPTSGAVVRATVDGDKVTIEVLDKDNPKVVARFTFDLGSAGG [r13_938_TrMRF]	3.79 ± 0.2	4.74 ± 0.15	4.37 ± 0.19
SAGGSAGGSAIADEFAEKNPNFQVEVERHTFEMTQYDPDGGWRQHRMFMISITIVPPGDPLSAGGSAGGSAG [r3_358_TrROS]	2.91 ± 0.19	4.07 ± 0.2	3.44 ± 0.3
SAGGSAGGSALKPGEPITIIFLFKEPNGRPYIMVIEIEVNPDGGIKIKGMEMITLEDLDKISAGGSAGGSAG [r3_212_TrROS]	2.97 ± 0.21	4.54 ± 0.19	4.43 ± 0.25
SAGGSAGGKKKYLVKITIKYVDKKTGKLVKEETITVEVSEEELEELLKKLPPGAEITKIEIYKLSAGGSAGG [r6_776_TrROS_Hall]	2.96 ± 0.13	3.58 ± 0.071	3.4 ± 0.071
SAGGSAGGSAGMRVVEVYRLPDGSYRIRFPDGTEVEVSPEELEEVARRLGADEVRVRPELSAGGSAGGSAGG [r11_312_JUSTAS]	2.4 ± 0.056	4.201 ± 0.041	3.78 ± 0.051
SAGGSAGGSAGTMTAEEIAKALGAKVVEVYPDKVVIEIEVDGKKYRITINEDGEVTVEEVSAGGSAGGSAGG [r17_252_TrROS_Hall]	2.62 ± 0.11	4.47 ± 0.15	4.02 ± 0.21
SAGGSAGGSASTSEKIDYPNPPITVTRLPNGVVLVTYSDSNTTTVIPESVLATLPPTVPLFSAGGSAGGSAG [r3_256_JUSTAS]	1.58 ± 0.048	1.12 ± 0.013	1.33 ± 0.043
SAGGSAGGSMELDEDGRLIVRIKVRDKETKEWKEIEIELPGLTEEEIRKLAEELGAEEIEILPSAGGSAGGS [r12_792_TrROS_Hall]	2.35 ± 0.061	2.39 ± 0.083	2.43 ± 0.078
SMTRVKVELLITNPATGETFYYDIEATEEEAEEIAKELEESYPEKNATVTIKKKEVIPVEPPVVLPEGILSA [r9_14_JUSTAS]	0.418 ± 0.036	0.906 ± 0.057	0.815 ± 0.069
SAYYIIIKIENPNDGKPFIIMIPGNNIHIFDPDNGKPVEIEVDGDKIEIKFNNRPVTVKPLEVIPPEAISAG [r14_208_TrROS]	1.54 ± 0.11	2.42 ± 0.04	2.15 ± 0.23
SAGMTSVLTLEEVSPEELRAKIDEALATLPEGTIFVLPSEELAEVVKELHPGVPVVVRDEATGRLTEVGSAG [r5_391_JUSTAS]	1.17 ± 0.041	1.67 ± 0.1	1.5 ± 0.086
SAGGSAGGGAVVLEEAFDPVRPERLVLVEVVNEKGEPFRFPVPLEDLEAVFEKLPPGFPVLVLPSAGGSAGG [r6_111_TrMRF]	0.491 ± 0.021	0.135 ± 0.1	0.36 ± 0.048
SAPPTVKINWERVRRNGKRYYMIRVEITHPNNGKEREHTFMYDDPEDFLDNLLKLPNIDRVEIEDIYPMSAG [r14_464_TrROS]	1.64 ± 0.27	1.8 ± 0.2	2.12 ± 0.51
MTVTVPPDGTVTITLTDPSGNTYTFTIPVTDPAELRARLEEAIRELFPEFEDIPVRVVAVDGPAVVVEVPLS [r1_389_JUSTAS]	3.02 ± 0.12	3.12 ± 0.036	3.1 ± 0.086
SAGKKYKVKKKITLTLEDGSKITIEIVENEDGTVEIKITDSNGKTRTITIPKEKLENMSLEELLKLLKSAGG [r19_47_TrROS_Hall]	1.76 ± 0.1	1.73 ± 0.13	1.92 ± 0.22
SAGSITITIETLPDGTIRITIPYTSEEEAKKVAEEVAKEIAEKLGEEVIKFEVTPEDDDTLILTIPIKKSAG [r5_772_JUSTAS]	1.15 ± 0.15	1.81 ± 0.092	1.78 ± 0.28
